We go through one molecule from article PMC7616481, “The functional evolution of collembolan Ubx on the regulation of abdominal appendage formation”.

Series [1] concerns the target FcUbx isoform 2 (FcU2, FcUbx2), N-terminally truncated (Folsomia candida, UniProt A0AA96CC73 39-288). Put plainly: EMSA; 0.4-3 pmol FcU2; 20 ul with EMSA buffer (5x: 0.1 M Tris, 25% glycerol, 0.2 mg/ml BSA), MgCl2 (2.5 M stock), DTT (1 M stock), poly(dI-dC), 20 ng Cy5 probe; 25 min at 25 C; 12% native PAGE on ice; pH not stated. The settings on record: protein: recombinant; tags: GST; label: 5'-Cy5 (both strands). A general note: Mobility shift assays separate free from complexed probe on a gel.

Series [2] has as its target FcUbx isoform 1 (FcU1, FcUbx1), N-terminally truncated (Folsomia candida, UniProt A0AA95ZMF5 39-293). Put plainly: EMSA; 0.2-1.5 pmol FcU1; 20 ul with EMSA buffer (5x: 0.1 M Tris, 25% glycerol, 0.2 mg/ml BSA), MgCl2 (2.5 M stock), DTT (1 M stock), poly(dI-dC), 20 ng Cy5 probe; 25 min at 25 C; 12% native PAGE on ice; pH not stated. The note with it: protein: recombinant; tags: GST; label: 5'-Cy5 (both strands).

B1: DMXR (dsDNA)
DNA 1: GACAATATTTGGGAAATTAAATCATTCCCGCGGACAGTTTTATAGTGC
DNA 2: GCACTATAAAACTGTCCGCGGGAATGATTTAATTTCCCAAATATTGTC
On to B1, for which the binding result in series [1] and in series [2] was “binds” each time.
